Measurements from publication PMC4183432, “Evidence of a Bacterial Receptor for Lysozyme: Binding of Lysozyme to the Anti-σ Factor RsiV Controls Activation of the ECF σ Factor σ^V” (PLoS Genetics, 2014).

Target: T1, GST-RsiV^59–285 (B. subtilis, UniProt O05403 59-285)
T1 construct: plasmid pKBW204 (pDEST15); source: E. coli BL21(DE3), purified (Glutathione HiCap Matrix); not shown: GST, N-terminal, kept
T1 sequence (looked up): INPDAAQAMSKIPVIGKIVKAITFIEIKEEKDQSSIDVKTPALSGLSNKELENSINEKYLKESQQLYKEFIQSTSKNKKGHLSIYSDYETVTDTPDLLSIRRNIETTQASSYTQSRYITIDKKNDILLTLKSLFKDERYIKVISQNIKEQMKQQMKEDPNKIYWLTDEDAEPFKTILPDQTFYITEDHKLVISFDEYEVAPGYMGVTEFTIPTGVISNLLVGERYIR
Test: pull-down; 2 mg purified GST-RsiV^59–285 on a Glutathione HiCap Matrix column in PBS-EW; 2 mg of HEW lysozyme, human lysozyme or mutanolysin applied; washed with PBS-EW, eluted with TNGT; SDS-PAGE
Details: both partners purified

B1: human lysozyme (enzyme, UniProt P61626 19-148, looked up)
chain: KVFERCELARTLKRLGMDGYRGISLANWMCLAKWESGYNTRATNYNAGDRSTDYGIFQINSRYWCNDGKTPGAVNACHLSCSALLQDNIADAVACAKRVVRDPQGIRAWVAWRNRCQNRDVRQYVQGCGV
notes: Human lysozyme, a C-type lysozyme (58% identity to HEW lysozyme); also called HUM lysozyme
  binding result: binds
